The record followed here is article PMC4493018, “A Unique Human Norovirus Lineage with a Distinct HBGA Binding Interface” (PLoS Pathogens, 2015).

One experiment has as its target T1, OIF P particle (Norovirus NLV/IF1998/2003/Iraq, UniProt Q6B7R3).
T1 construct: P domain self-assembled to P particles of 830 kDa; GST fusion from E. coli BL21, GST cut off with thrombin
Description: ELISA, oligosaccharide coated on plate. It counts as binding. The note with it: P particles 10 μg/ml, coated synthetic oligosaccharide 2 μg/ml (polyvalent PAA conjugate in the blocking assay), 37 °C. (ELISA stands for enzyme-linked immunosorbent assay.)

For experiment [1], the target named is T2, OIF P domain (GII.21 OIF virus P dimer) (Norovirus NLV/IF1998/2003/Iraq, UniProt Q6B7R3).
T2 construct: P domain, residues 220-527, pGEX-6P-1 GST fusion in E. coli BL21(DE3), GST cut off with PreScission protease; dimer
Description: X-ray co-crystal structure, […] Å. The settings on record: co-crystallised without glycerol; 10 mM ligand; new HBGA site of B-, N- and T-loops; beta-Gal is major binding saccharide.

Experiment [2] has as its target P domain of the GII.21 OIF (Operation Iraqi Freedom) norovirus capsid protein VP1 (human norovirus GII.21 OIF virus). Description: crystal structure.
The target of a further experiment is Lea oligosaccharide. Description: plate binding assay with coated oligosaccharides (OD450 read-out). The settings on record: P particles 10 μg/ml; oligosaccharides for plate coating at 2 μg/ml; parent: est. 0.85; read off a plot.
In experiment [3] the target is A antigen oligosaccharide. The experiment is described as above. The settings on record: P particles 10 μg/ml; oligosaccharides for plate coating at 2 μg/ml; parent: est. 0.04; read off a plot.

For `CC(=O)N[C@H]1C(O)O[C@H](CO)[C@@H](O[C@@H]2O[C@@H](C)[C@@H](O)[C@@H](O)[C@@H]2O)[C@@H]1O[C@@H]1O[C@H](CO)[C@H](O)[C@H](O)[C@H]1O` (stereo partly drawn) [Le^a trisaccharide, β-Gal-(1,3)-(α-Fuc-(1,4))- GlcNAc], the “ELISA, oligosaccharide coated on plate” value on OIF P particle is “wild type P particle of OIF virus that binds strongly to Le^a oligosaccharide”. Further, the “X-ray co-crystal structure, 2.00 Å” value in experiment [1] is listed as “we co-crystallized the OIF P domain with Le^a trisaccharide”. Usually stoichiometry N stands for a count of units in the complex or per binding partner. As for “P domain of the GII.21 OIF (Operation Iraqi Freedom) norovirus capsid protein VP1 (domain or fragment)”, the stoichiometry N in experiment [2] came to 2. As for wild type P particle of OIF virus D294A, the response with Lea oligosaccharide worked out at 0.32 OD450; in experiment [3], 0.07 OD450.

Consider wild type P particle of OIF virus E358A, for which, in experiment [3], the response was found to be 0.08 OD450.
